# B1: AS1974 sRNA (ssRNA)
# RNA: GAAUGUUCUUAAAUAUCCUCAAGCGGUUGCGCGGCCAGGCACUGGUCGAGGAGAUGCACCAGGGUGGCCUGUUCCACCGGGGUGAGCGGGGCAAACAACUCGUCAUGCACGCGUGACAUGAUGGCCUC
# B2: AS2779 sRNA (ssRNA)
# RNA: GCGAACCCCAAGGGUAUUUCCCGACCAGCUCCCCCGCGGUCGGGAUUUUUUUUUGCCUGUCGCUCAGCGCUUCGGGUCGAAGGGCGAAUAGCCCCGCCGGCGCAGGCUCGCCAGGGGCGCGAACAGCGG
# B3: IGR2780 sRNA (ssRNA)
# RNA: GCUGUACAUCCCUGGAUCCUUUCCCGGCCUGCUCCACGCGGCCGGGAUUUUUUUUGCCC
# How the values were obtained:
# Hfq [1] = target: T1, Hfq (Pseudomonas aeruginosa, UniProt Q9HUM0 Q9HUM0:1-82); assay: EMSA; apparent Kd, Hill fit; 50 mM Tris, 250 mM NH4Cl pH 7.5, tRNA, 37 C; exact value in figure only; settings: tags: His tag (pET28a, TALON purified, anti-His6 used); chain copies: 6 inferred; label: 32P-UTP internal; I-shaped terminator
# Hfq [2] = target: T1, Hfq; assay: EMSA; apparent Kd, Hill fit; two cooperative binding sites; 50 mM Tris, 250 mM NH4Cl pH 7.5, tRNA, 37 C; exact value in figure only; settings: tags: His tag (pET28a, TALON purified, anti-His6 used), chain copies: 6 inferred, label: 32P-UTP internal
# T1 sequence (Q9HUM0 whole entry, one chain of several): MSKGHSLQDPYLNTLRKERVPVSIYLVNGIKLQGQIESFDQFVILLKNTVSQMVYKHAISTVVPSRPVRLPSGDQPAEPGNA
binder,measurement,setting,value
B1,Kd,Hfq [1],< 150 nM
B2,Kd,"Hfq [2]; I-shaped terminator, canonical terminator in the middle",< 150 nM
B3,Kd,Hfq [2]; terminator stem-loop with poly(U) stretch,< 150 nM

# From patent US20210395731, “METHOD AND COMPOSITION FOR INHIBITING GROWTH OF BACTERIUM” (City University of Hong Kong, published 2021)
